Square brackets hold non-standard residues; d marks the D form. Ends that are not written are not given here.
Biological target: T1, mouse ADAMTS7 (Mus musculus, UniProt Q68SA9)
T1 construct: Full-length mouse Adamts7 1-1857 (Uniprot Q68SA9, WT or E373Q catalytic mutant); expressed in transfected cells; host or cells: Human Coronary Artery Smooth Muscle Cells (HCA-SMC, Lonza), adenovirus 50 MOI
T1 sequence (Q68SA9 221-1657): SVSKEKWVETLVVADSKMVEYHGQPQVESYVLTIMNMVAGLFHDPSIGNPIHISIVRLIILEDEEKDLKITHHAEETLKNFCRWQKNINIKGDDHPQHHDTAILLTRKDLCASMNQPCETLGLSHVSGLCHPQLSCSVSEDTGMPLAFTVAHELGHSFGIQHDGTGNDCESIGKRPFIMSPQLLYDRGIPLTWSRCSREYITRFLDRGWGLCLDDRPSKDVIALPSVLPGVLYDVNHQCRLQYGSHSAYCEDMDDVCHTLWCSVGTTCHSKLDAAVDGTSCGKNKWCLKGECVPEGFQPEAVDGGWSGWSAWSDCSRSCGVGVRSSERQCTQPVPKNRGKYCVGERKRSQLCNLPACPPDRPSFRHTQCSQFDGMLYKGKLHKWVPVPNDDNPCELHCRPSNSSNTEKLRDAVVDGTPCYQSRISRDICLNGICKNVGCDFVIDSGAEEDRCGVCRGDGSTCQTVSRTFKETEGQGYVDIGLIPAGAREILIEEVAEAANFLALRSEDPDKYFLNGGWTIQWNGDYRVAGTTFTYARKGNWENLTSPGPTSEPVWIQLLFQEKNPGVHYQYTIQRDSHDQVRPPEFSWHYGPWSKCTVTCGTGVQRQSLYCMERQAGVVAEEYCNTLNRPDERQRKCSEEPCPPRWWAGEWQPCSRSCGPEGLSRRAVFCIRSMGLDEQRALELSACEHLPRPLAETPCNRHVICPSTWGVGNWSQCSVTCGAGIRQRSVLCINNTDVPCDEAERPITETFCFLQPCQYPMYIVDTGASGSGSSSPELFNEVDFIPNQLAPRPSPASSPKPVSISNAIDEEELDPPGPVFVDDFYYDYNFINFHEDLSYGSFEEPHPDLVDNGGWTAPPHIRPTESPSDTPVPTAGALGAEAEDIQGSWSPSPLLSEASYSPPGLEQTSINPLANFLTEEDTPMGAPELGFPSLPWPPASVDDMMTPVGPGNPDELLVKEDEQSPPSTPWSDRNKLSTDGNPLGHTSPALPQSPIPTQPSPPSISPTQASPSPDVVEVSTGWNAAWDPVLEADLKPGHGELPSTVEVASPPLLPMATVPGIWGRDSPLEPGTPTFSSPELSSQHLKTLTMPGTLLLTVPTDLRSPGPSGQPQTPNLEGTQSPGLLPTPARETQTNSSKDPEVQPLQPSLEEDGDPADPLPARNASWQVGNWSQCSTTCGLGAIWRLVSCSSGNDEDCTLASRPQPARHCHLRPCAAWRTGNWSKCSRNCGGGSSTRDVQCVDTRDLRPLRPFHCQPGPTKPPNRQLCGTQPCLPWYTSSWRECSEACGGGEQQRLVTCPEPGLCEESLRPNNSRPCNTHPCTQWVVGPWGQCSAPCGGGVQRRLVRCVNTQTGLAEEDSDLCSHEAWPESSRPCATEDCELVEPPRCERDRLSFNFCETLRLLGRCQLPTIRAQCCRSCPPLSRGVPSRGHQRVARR
Assay: TMT10 TAILS N-terminomics, SMC2 experiment (process replicates, trypsin/AspN digest)
Type: cell-based
Details: SMC2_TAILS HC
From the text: ADAMTS7 Expression, Cell Culture and Preparation of the Secreted Proteins—Full-length mouse Adamts7 1-1857 (Uniprot Q68SA9, WT or E373Q catalytic mutant) with a carboxyl terminal 3xFLAG tag was used to generate custom adenoviruses as previously described. Adeno-CMV-Luciferase (Ad-Luc) from Vector Biolabs was used as a negative control. Human Coronary Artery Smooth Muscle Cells (HCA-SMC) were obtained from Lonza and expanded in Lonza SmGM-2 media in 15 cm tissue culture plates. Twenty-four hours before media collection, near confluent plates were transduced with 50 MOI adenovirus and switched to Lonza Basal SM media with volumes of 20 ml per 15 cm plate. Expression of the Flag tagged ADAMTS7 was confirmed from the media using western blot and detected using the anti-Flag M2-HRP antibody (Sigma, A8592). Collected media was processed by adding protease inhibitors (1 mM EDTA and 1 mM PMSF) and clarified by 500 g×5 min spin at 4 C to pellet cell debris. Cell media supernatants were then passed through a 0.22 um filter and kept chilled. Processed media was then concentrated 50-100× using 3 kDa Centricon Plus-70 filter unit, spun at 3,500 g×60 min at 4 C. Approximately 10% of the processed, concentrated media was set aside for total secretome proteolytic analysis. The remaining 90% of the processed, concentrated media was buffer exchanged into 50 mM HEPES pH 8.0, 150 mM NaCl (2×50 ml) using the 3 kDa Centricon Plus-70 filter unit and concentrated to >2 mg/ml to serve as input for the TAILS experiment. Secretome and TAILS input samples were stored at −80° C.
For the first experiment, referred to as SMC1, 120 ml of media from 6×15 cm dishes was pooled from each condition (Luc, WT, EQ) and processed to produce three separate inputs for the TAILS experiment. Luc, WT and EQ inputs from the SMC1 experiment were each divided into triplicate 400 ug samples to generate technical replicate TAILS data. For the second experiment, referred to as SMC2, media was processed separately in triplicate for each condition (Luc1, Luc2, Luc3, WT1, WT2, WT3, EQ1, EQ2, EQ3) using 60 ml of media from 3×15 cm dishes for each process replicate. Inputs from the SMC2 experiment used process replicates of 300 ug each to generate TAILS data. The third experiment used input from cultured Human umbilical vein endothelial cells (HUVEC) from Lifeline Cell Technology grown in VascuLife Media and transduced in Lifeline Basal EC (+bFGF2 10 ng/ml). The HUVEC experiment used the same strategy as the SMC2 experiment, with 40 ml of media from 2×15 cm dishes for each process replicate and used 200 ug each to generate TAILS data. Inputs for process replicate experiments were restricted to the lowest concentration from the 9 parallel samples for SMC2 or HUVEC.
TMT10 isotopic labeling and negative selection of non-labeled peptides-Sample preparation was performed based on the TAILS protocol from the Overall lab with some modifications. From a single experiment, nine parallel protein samples in 50 mM HEPES pH 8.0, 150 mM NaCl were separately denatured with guanidinium chloride (Sigma, G4505) to reach a final concentration of 2.5M guanidinium chloride and 250 mM HEPES and incubated at 65° C. for 15 min. Reduction was achieved through addition of tris(2-carboxylethyl) phosphine (TCEP) at a final concentration of […] and incubated at 65° C. for 45 min. Alkylation reaction was performed with addition of iodoacetamide (IAA, Sigma, A3221) to a final concentration of 10 mM IAA for 15 min at room temperature in the dark. Following denaturation, reduction and alkylation steps, ten percent of each of the nine parallel protein samples was removed and combined to serve as a pooled reference. Isobaric tags were added to free amine groups using the TMT10plex Isobaric Mass Tagging Kit (ThermoFisher, 90113) with TMT channels randomly assigned to the nine samples and TMT 131 assigned to the pooled reference. […]

[1] = log fold change of N-terminal peptide, Ad-mADAMTS7 WT over Luc

Substance	logFC.mWT.over.Luc (log fold change, mWT over Luc)	logFC.mWT.over.Luc [1]
AEBP1_37 (FLEGFLSELEPEPR; listed as Homo sapiens)	3.21	
CCDC80_66 (LEEPNLQPLQR; listed as Homo sapiens)	2.08	
EFEMP1_124 (AVAGPEMQTGR; listed as Homo sapiens)	2.81	
EFEMP1_125 (VAGPEMQTGR; listed as Homo sapiens)	1.43	
FBLN2_259 (ALGPPAPVQAKAR; listed as Homo sapiens)	1.61	
FBLN2_260 (LGPPAPVQAKAR; listed as Homo sapiens)	1.98	
FBN1_29 (LEAGNVKETR; listed as Homo sapiens)	3.33	
FBN1_53 (LKGPNVCGSR; listed as Homo sapiens)	4.64	
FLNA_1285 (LTQTGGPHVKAR; listed as Homo sapiens)	4.37	
FN1_36 (MVQPQSPVAVSQSKPGCYDNGKHYQINQQWER; listed as Homo sapiens)	3.59	
FN1_40 (QSPVAVSQSKPGCYDNGKHYQINQQWER; listed as Homo sapiens)	2.60	
FN1_1143 (LTPGVEYVYTIQVLR; listed as Homo sapiens)	2.31	
FN1_1656 (SSSPVTGYR; listed as Homo sapiens)	1.20	
GSN_413 (HIANVER; listed as Homo sapiens)	1.91	
HSPG2_275 (LLPGSVR; listed as Homo sapiens)	1.74	
HSPG2_2331 (ANLAYPAGSTQPIR; listed as Homo sapiens)	1.72	
HSPG2_2333 (LAYPAGSTQPIR; listed as Homo sapiens)	1.19	
IGFBP3_31 (SAGLGPVVR; listed as Homo sapiens)	2.12	
IGFBP3_32 (AGLGPVVR; listed as Homo sapiens)	4.68	
IGFBP7_101 (AAGGPGVSGVCVCKSR; listed as Homo sapiens)	2.53	
LOXL1_219 (VASAGVIYPYQPR; listed as Homo sapiens)		1.56
LOXL2_37 (FQQPAPEYHQPQAPANVAKIQLR; listed as Homo sapiens)		3.27
LOXL2_38 ([code q]QPAPEYHQPQAPANVAKIQLR; not fully specified; listed as Homo sapiens)		1.74
LOX_58 (LSLGSQYQPQR; listed as Homo sapiens)	1.68	
LOX_123 (HWFQAGYSTSR; listed as Homo sapiens)	1.37	
LOX_124 (WFQAGYSTSR; listed as Homo sapiens)	3.35	
LOX_126 (QAGYSTSR; listed as Homo sapiens)	2.77	
LTBP1_393 (LTATNFR; listed as Homo sapiens)		6.60
LTBP1_540 (HQQVIPHVYPVAAKTQLGR; listed as Homo sapiens)		1.82

Source: patent publication US20240368668A1, “SUBSTRATES AND BIOMARKERS OF ADAMTS7” (The Broad Institute, Inc., priority 2021, published 2024)
